Measurements taken from paper PMC8298264, “Function of cofactor Akirin2 in the regulation of gene expression in model human neutrophil-like HL60 cells” (Bioscience Reports, 2021).

B1: sp¦O60306¦AQR_HUMAN (protein, UniProt O60306 1-1485, looked up)
RNA helicase aquarius: MAAPAQPKKIVAPTVSQINAEFVTQLACKYWAPHIKKKSPFDIKVIEDIYEKEIVKSRFAIRKIMLLEFSQYLENYLWMNYSPEVSSKAYLMSICCMVNEKFRENVPAWEIFKKKPDHFPFFFKHILKAALAETDGEFSLHEQTVLLLFLDHCFNSLEVDLIRSQVQQLISLPMWMGLQLARLELELKKTPKLRKFWNLIKKNDEKMDPEAREQAYQERRFLSQLIQKFISVLKSVPLSEPVTMDKVHYCERFIELMIDLEALLPTRRWFNTILDDSHLLVHCYLSNLVRREEDGHLFSQLLDMLKFYTGFEINDQTGNALTENEMTTIHYDRITSLQRAAFAHFPELYDFALSNVAEVDTRESLVKFFGPLSSNTLHQVASYLCLLPTLPKNEDTTFDKEFLLELLVSRHERRISQIQQLNQMPLYPTEKIIWDENIVPTEYYSGEGCLALPKLNLQFLTLHDYLLRNFNLFRLESTYEIRQDIEDSVSRMKPWQSEYGGVVFGGWARMAQPIVAFTVVEVAKPNIGENWPTRVRADVTINLNVRDHIKDEWEGLRKHDVCFLITVRPTKPYGTKFDRRRPFIEQVGLVYVRGCEIQGMLDDKGRVIEDGPEPRPNLRGESRTFRVFLDPNQYQQDMTNTIQNGAEDVYETFNIIMRRKPKENNFKAVLETIRNLMNTDCVVPDWLHDIILGYGDPSSAHYSKMPNQIATLDFNDTFLSIEHLKASFPGHNVKVTVEDPALQIPPFRITFPVRSGKGKKRKDADVEDEDTEEAKTLIVEPHVIPNRGPYPYNQPKRNTIQFTHTQIEAIRAGMQPGLTMVVGPPGTGKTDVAVQIISNIYHNFPEQRTLIVTHSNQALNQLFEKIMALDIDERHLLRLGHGEEELETEKDFSRYGRVNYVLARRIELLEEVKRLQKSLGVPGDASYTCETAGYFFLYQVMSRWEEYISKVKNKGSTLPDVTEVSTFFPFHEYFANAPQPIFKGRSYEEDMEIAEGCFRHIKKIFTQLEEFRASELLRSGLDRSKYLLVKEAKIIAMTCTHAALKRHDLVKLGFKYDNILMEEAAQILEIETFIPLLLQNPQDGFSRLKRWIMIGDHHQLPPVIKNMAFQKYSNMEQSLFTRFVRVGVPTVDLDAQGRARASLCNLYNWRYKNLGNLPHVQLLPEFSTANAGLLYDFQLINVEDFQGVGESEPNPYFYQNLGEAEYVVALFMYMCLLGYPADKISILTTYNGQKHLIRDIINRRCGNNPLIGRPNKVTTVDRFQGQQNDYILLSLVRTRAVGHLRDVRRLVVAMSRARLGLYIFARVSLFQNCFELTPAFSQLTARPLHLHIIPTEPFPTTRKNGERPSHEVQIIKNMPQMANFVYNMYMHLIQTTHHYHQTLLQLPPAMVEEGEEVQNQETELETEEEAMTVQADIIPSPTDTSCRQETPAFQTDTTPSETGATSTPEAIPALSETTPTVVGAVSAPAEANTPQDATSAPEETK
B2: sp¦P62995¦TRA2B_HUMAN (protein, UniProt P62995 2-288, looked up)
Transformer-2 protein homolog …: SDSGEQNYGERESRSASRSGSAHGSGKSARHTPARSRSKEDSRRSRSKSRSRSESRSRSRRSSRRHYTRSRSRSRSHRRSRSRSYSRDYRRRHSHSHSPMSTRRRHVGNRANPDPNCCLGVFGLSLYTTERDLREVFSKYGPIADVSIVYDQQSRRSRGFAFVYFENVDDAKEAKERANGMELDGRRIRVDFSITKRPHTPTPGIYMGRPTYGSSRRRDYYDRGYDRGYDDRDYYSRSYRGGGGGGGGWRAAQDRDQIYRRRSPSPYYSRGGYRSRSRSRSYSPRRY
B3: sp¦Q8N335¦GPD1L_HUMAN (protein, UniProt Q8N335 1-351, looked up)
Glycerol-3-phosphate …: MAAAPLKVCIVGSGNWGSAVAKIIGNNVKKLQKFASTVKMWVFEETVNGRKLTDIINNDHENVKYLPGHKLPENVVAMSNLSEAVQDADLLVFVIPHQFIHRICDEITGRVPKKALGITLIKGIDEGPEGLKLISDIIREKMGIDISVLMGANIANEVAAEKFCETTIGSKVMENGLLFKELLQTPNFRITVVDDADTVELCGALKNIVAVGAGFCDGLRCGDNTKAAVIRLGLMEMIAFARIFCKGQVSTATFLESCGVADLITTCYGGRNRRVAEAFARTGKTIEELEKEMLNGQKLQGPQTSAEVYRILKQKGLLDKFPLFTAVYQICYESRPVQEMLSCLQSHPEHT
B4: sp¦Q86Y56¦DAAF5_HUMAN (protein, UniProt Q86Y56 2-855, looked up)
Dynein axonemal assembly …: AALGVAEAVAAPHPAEGAETAEAVELSRALSRLLPGLEADSKPGRRRALEALRRALEEPGPAADPTAFQGPWARLLLPRLLRCLSDPAEGCRALAVHLLDLGLRRAARPRDALPRLLPALAARLAGPVPARRPPEACEELRLALVQLLGLAVDLCGAALAPHLDDALRALRCSLLDPFAAVRRESCSCAAALAQATPDHFHMQSESLIGPLMQTISHQHWKVRVAAIEATGAVIHFGNGKSVDDVLSHFAQRLFDDVPQVRRAVASVVGGWLLCLRDRYSFFHKLIPLLLSSLNDEVPEVRQLAASLWEDVGLQWQKENEEDLKDKLDFAPPTPPHYPPHERRPVLGCRELVFRNLSKILPALCHDITDWVVGTRVKSAQLLPVLLLHAEDHATQHLEVVLRTLFQACTDEEAAVVQSCTRSAELVGTFVSPEVFLKLILSTLKKTPSASGLLVLASAMRGCPREALQPHLAAIATELAQAHICQASENDLYLERLLLCVQALVSVCHEDCGVASLQLLDVLLTIVALAGATGLRDKAQETMDSLAMVEGVSSCQDLYRKHIGPLLERVTASHLDWTAHSPELLQFSVIVAQSGPALGEALPHVVPTLRACLQPSQDPQMRLKLFSILSTVLLRATDTINSQGQFPSYLETVTKDILAPNLQWHAGRTAAAIRTAAVSCLWALTSSEVLSAEQIRDVQETLMPQVLTTLEEDSKMTRLISCRIINTFLKTSGGMTDPEKLIRIYPELLKRLDDVSNDVRMAAASTLVTWLQCVKGANAKSYYQSSVQYLYRELLVHLDDPERAIQDAILEVLKEGSGLFPDLLVRETEAVIHKHRSATYCEQLLQHVQAVPATQ
B5: sp¦P41250¦GARS_HUMAN (protein, UniProt P41250 37-739, looked up)
Glycine--tRNA ligase: SAASCPPISLPAAASRSSMDGAGAEEVLAPLRLAVRQQGDLVRKLKEDKAPQVDVDKAVAELKARKRVLEAKELALQPKDDIVDRAKMEDTLKRRFFYDQAFAIYGGVSGLYDFGPVGCALKNNIIQTWRQHFIQEEQILEIDCTMLTPEPVLKTSGHVDKFADFMVKDVKNGECFRADHLLKAHLQKLMSDKKCSVEKKSEMESVLAQLDNYGQQELADLFVNYNVKSPITGNDLSPPVSFNLMFKTFIGPGGNMPGYLRPETAQGIFLNFKRLLEFNQGKLPFAAAQIGNSFRNEISPRSGLIRVREFTMAEIEHFVDPSEKDHPKFQNVADLHLYLYSAKAQVSGQSARKMRLGDAVEQGVINNTVLGYFIGRIYLYLTKVGISPDKLRFRQHMENEMAHYACDCWDAESKTSYGWIEIVGCADRSCYDLSCHARATKVPLVAEKPLKEPKTVNVVQFEPSKGAIGKAYKKDAKLVMEYLAICDECYITEMEMLLNEKGEFTIETEGKTFQLTKDMINVKRFQKTLYVEEVVPNVIEPSFGLGRIMYTVFEHTFHVREGDEQRTFFSFPAVVAPFKCSVLPLSQNQEFMPFVKELSEALTRHGVSHKVDDSSGSIGRRYARTDEIGVAFGVTIDFDTVNKTPHTATLRDRDSMRQIRAEISELPSIVQDLANGNITWADVEARYPLFEGQETGKKETIEE
B6: sp¦Q9UIG0¦BAZ1B_HUMAN (protein, UniProt Q9UIG0 1-1483, looked up)
Tyrosine-protein kinase BAZ1B: MAPLLGRKPFPLVKPLPGEEPLFTIPHTQEAFRTREEYEARLERYSERIWTCKSTGSSQLTHKEAWEEEQEVAELLKEEFPAWYEKLVLEMVHHNTASLEKLVDTAWLEIMTKYAVGEECDFEVGKEKMLKVKIVKIHPLEKVDEEATEKKSDGACDSPSSDKENSSQIAQDHQKKETVVKEDEGRRESINDRARRSPRKLPTSLKKGERKWAPPKFLPHKYDVKLQNEDKIISNVPADSLIRTERPPNKEIVRYFIRHNALRAGTGENAPWVVEDELVKKYSLPSKFSDFLLDPYKYMTLNPSTKRKNTGSPDRKPSKKSKTDNSSLSSPLNPKLWCHVHLKKSLSGSPLKVKNSKNSKSPEEHLEEMMKMMSPNKLHTNFHIPKKGPPAKKPGKHSDKPLKAKGRSKGILNGQKSTGNSKSPKKGLKTPKTKMKQMTLLDMAKGTQKMTRAPRNSGGTPRTSSKPHKHLPPAALHLIAYYKENKDREDKRSALSCVISKTARLLSSEDRARLPEELRSLVQKRYELLEHKKRWASMSEEQRKEYLKKKREELKKKLKEKAKERREKEMLERLEKQKRYEDQELTGKNLPAFRLVDTPEGLPNTLFGDVAMVVEFLSCYSGLLLPDAQYPITAVSLMEALSADKGGFLYLNRVLVILLQTLLQDEIAEDYGELGMKLSEIPLTLHSVSELVRLCLRRSDVQEESEGSDTDDNKDSAAFEDNEVQDEFLEKLETSEFFELTSEEKLQILTALCHRILMTYSVQDHMETRQQMSAELWKERLAVLKEENDKKRAEKQKRKEMEAKNKENGKVENGLGKTDRKKEIVKFEPQVDTEAEDMISAVKSRRLLAIQAKKEREIQEREMKVKLERQAEEERIRKHKAAAEKAFQEGIAKAKLVMRRTPIGTDRNHNRYWLFSDEVPGLFIEKGWVHDSIDYRFNHHCKDHTVSGDEDYCPRSKKANLGKNASMNTQHGTATEVAVETTTPKQGQNLWFLCDSQKELDELLNCLHPQGIRESQLKERLEKRYQDIIHSIHLARKPNLGLKSCDGNQELLNFLRSDLIEVATRLQKGGLGYVEETSEFEARVISLEKLKDFGECVIALQASVIKKFLQGFMAPKQKRRKLQSEDSAKTEEVDEEKKMVEEAKVASALEKWKTAIREAQTFSRMHVLLGMLDACIKWDMSAENARCKVCRKKGEDDKLILCDECNKAFHLFCLRPALYEVPDGEWQCPACQPATARRNSRGRNYTEESASEDSEDDESDEEEEEEEEEEEEEDYEVAGLRLRPRKTIRGKHSVIPPAARSGRRPGKKPHSTRRSQPKAPPVDDAEVDELVLQTKRSSRRQSLELQKCEEILHKIVKYRFSWPFREPVTRDEAEDYYDVITHPMDFQTVQNKCSCGSYRSVQEFLTDMKQVFTNAEVYNCRGSHVLSCMVKTEQCLVALLHKHLPGHPYVRRKRKKFPDRLAEDEGDSEPEAVGQSRGRRQKK
B7: sp¦P13995¦MTDC_HUMAN (protein, UniProt P13995 36-350, looked up)
Bifunctional …: EAVVISGRKLAQQIKQEVRQEVEEWVASGNKRPHLSVILVGENPASHSYVLNKTRAAAVVGINSETIMKPASISEEELLNLINKLNNDDNVDGLLVQLPLPEHIDERRICNAVSPDKDVDGFHVINVGRMCLDQYSMLPATPWGVWEIIKRTGIPTLGKNVVVAGRSKNVGMPIAMLLHTDGAHERPGGDATVTISHRYTPKEQLKKHTILADIVISAAGIPNLITADMIKEGAAVIDVGINRVHDPVTAKPKLVGDVDFEGVRQKAGYITPVPGGVGPMTVAMLMKNTIIAAKKVLRLEEREVLKSKELGVATN

What follows are molecules tested on human HL60 cells (assay: SWATH-MS proteomics, differential protein representation, akirin2 KO vs WT HL60 cells). Conditions: akirin2 KO vs WT HL60 cells; sheet "Under-represented in KO".
Type: cell-based
Procedure, shortened: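 Read-out is label-free SWATH-MS protein area, globally normalized to total detected-protein area, with identifications held at 1% FDR against a library from information-dependent acquisition.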
For B1, the “Fold Change” value was 0.6822 and the “Log (Fold Change)” value was -0.1661.
For B2, the “Fold Change” value was 0.3066 and the “Log (Fold Change)” value was -0.5134.
In the case of B3, the “Fold Change” value is reported as 0.6832 and the “Log (Fold Change)” value is reported as -0.1655.
In the case of B4, the “Fold Change” value is reported as 0.3018 and the “Log (Fold Change)” value is reported as -0.5202.
For B5, the “Fold Change” value was 0.6839 and the “Log (Fold Change)” value was -0.165.
B6 was tested, and the “Fold Change” value was 0.6821 and the “Log (Fold Change)” value was -0.1661.
In the case of B7, the “Fold Change” value is reported as 0.682 and the “Log (Fold Change)” value is reported as -0.1662.
